The values that follow come from patent US20210139582A1.

As a reminder, the Kd is the equilibrium constant for the complex coming apart.

For assay [1], the target named is C-terminus biotinylated monomeric human CD32a^H (FcγRIIa, histidine-131 variant), recombinant (human) (UniProt P12318). Description: SPR, estimated steady state KD, monomeric IgG, pH 7.4.
The target of assay [2] is C-terminus biotinylated monomeric human CD32a^R (FcγRIIa, arginine-131 variant), recombinant (human) (UniProt P12318). The assay is described as above.
C-terminus biotinylated monomeric human CD32a^R (FcγRIIa, arginine-131 variant), recombinant (human), sequence (P12318 other isoform, or with tags, fused parts or gaps mutant): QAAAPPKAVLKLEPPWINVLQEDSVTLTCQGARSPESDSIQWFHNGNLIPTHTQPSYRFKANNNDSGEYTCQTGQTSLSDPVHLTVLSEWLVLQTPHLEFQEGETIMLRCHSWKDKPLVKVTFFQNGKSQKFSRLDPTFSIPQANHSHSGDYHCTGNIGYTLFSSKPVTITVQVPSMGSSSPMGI

C-terminus biotinylated monomeric human CD32a^H (FcγRIIa, histidine-131 variant), recombinant (human), sequence (P12318 34-218 limits assumed, change not shown): as the sequence (P12318 other isoform, or with tags, fused parts or gaps mutant) above, with R134H counted along it
anti-NIP mouse IgG2a (mIgG2a^WT) (antibody), sequence (P01863 whole entry): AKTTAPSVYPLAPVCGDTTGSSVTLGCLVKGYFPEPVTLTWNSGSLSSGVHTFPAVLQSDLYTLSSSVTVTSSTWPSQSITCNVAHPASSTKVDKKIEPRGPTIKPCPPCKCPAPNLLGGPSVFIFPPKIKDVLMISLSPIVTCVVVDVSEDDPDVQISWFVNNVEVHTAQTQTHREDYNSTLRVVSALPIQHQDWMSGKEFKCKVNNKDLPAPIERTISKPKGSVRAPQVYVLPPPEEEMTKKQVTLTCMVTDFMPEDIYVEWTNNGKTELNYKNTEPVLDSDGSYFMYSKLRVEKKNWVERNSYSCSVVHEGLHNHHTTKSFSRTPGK

On to “anti-NIP chimeric IgG with wild type human IgG1 Fc and murine anti-NIP antigen-binding domain (hIgG1^WT) (antibody)”, for which the Kd in assay [1] was 1.3 µM; in assay [2], 2 µM.

With “anti-NIP hIgG1-I253A/H310A/H435A (hIgG1^IHH) (from UniProt P01857 1-330) (antibody)”, the Kd in assay [2] is 3.7 µM. Same read-out and setting: for “anti-NIP hIgG1-M252Y/S254T/T256E/H433K/N434F (hIgG1^MST/HN) (from UniProt P01857 1-330) (antibody)” the value was 3.8 µM. Regarding anti-NIP hIgG2 (hIgG2^WT) (antibody), the Kd in assay [1] is 1.4 µM; in assay [2] it was 5.2 µM. The matching figures for “anti-NIP mouse IgG1 (mIgG1^WT) (antibody)”: 8.1 µM and 0.8 µM. The matching figures for “anti-NIP mouse IgG2a (mIgG2a^WT) (antibody)”: 3.4 µM and 3.6 µM.

With “anti-NIP mouse IgG2b (mIgG2b^WT) (antibody)”, the Kd in assay [1] is 5 µM; in assay [2], 4.5 µM.
